Assay results published in patent US20110189692A1.
Several values for one entry are separate records, joined by “and”; a condition that tells them apart may be missing. Equal entries are not always repeated.

What was measured:
[1] = target: aggregated Aβ42 from Alzheimer's disease brain homogenate (human) (UniProt P05067)
[2] = target: tau of normal human brain homogenate (native) (human) (UniProt P10636)
[3] = target: PrP^Sc, pathogenic conformer of the human prion protein, from vCJD brain homogenate (human) (UniProt P04156)
[4] = target: PrP^Sc, pathogenic conformer of the human prion protein, from vCJD brain homogenate (human) (UniProt P04156); remark: listed apart in the source
[5] = target: PrP^C, non-pathogenic human prion protein, from normal brain homogenate (human) (UniProt P04156)

For “PSR1 (peptoid reagent XIIb attached to magnetic beads) (designed binder)”, the recovery [1] was 100%, the tau ELISA signal after pulldown, mean of 3 [2] was 0.11 and 0.12 and the tau ELISA signal after pulldown, replicate [2] was 0.11 and 0.12 and 0.13. For the same substance, the pulldown efficiency [3] was 100%, the ELISA signal after pulldown (RLU, ave) [4] was 53 RLU and the ELISA signal after pulldown (RLU, ave) [5] was 9.9 RLU.
